Laboratory results from US20070166308A1 (Amgen, published 2007).

T1: VCAM (Panvera) (UniProt P19320 25-698, limits assumed)
T1 sequence (looked up): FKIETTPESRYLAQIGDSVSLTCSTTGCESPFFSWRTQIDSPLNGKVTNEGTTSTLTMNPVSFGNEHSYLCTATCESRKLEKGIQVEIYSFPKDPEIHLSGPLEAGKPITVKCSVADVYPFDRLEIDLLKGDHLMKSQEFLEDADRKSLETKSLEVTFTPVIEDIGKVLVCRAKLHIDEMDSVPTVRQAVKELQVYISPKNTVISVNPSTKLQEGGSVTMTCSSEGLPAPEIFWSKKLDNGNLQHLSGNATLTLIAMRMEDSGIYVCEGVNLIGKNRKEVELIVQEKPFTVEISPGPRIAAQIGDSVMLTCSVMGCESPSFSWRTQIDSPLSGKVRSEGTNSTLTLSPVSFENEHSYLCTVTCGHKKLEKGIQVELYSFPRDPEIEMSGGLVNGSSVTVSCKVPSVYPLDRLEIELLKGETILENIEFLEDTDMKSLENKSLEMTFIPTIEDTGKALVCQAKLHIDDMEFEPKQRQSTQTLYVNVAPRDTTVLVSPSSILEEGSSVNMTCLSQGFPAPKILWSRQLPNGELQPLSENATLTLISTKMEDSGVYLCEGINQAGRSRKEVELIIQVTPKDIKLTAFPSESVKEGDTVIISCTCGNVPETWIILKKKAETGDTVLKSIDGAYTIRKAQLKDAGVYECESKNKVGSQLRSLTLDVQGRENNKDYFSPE


Key:
[1] = target: Fibronectin cell binding fragment (110 Kd, Europa Bioproducts Ltd, Cat. No. UBF4215-18) (UniProt P02751-1 722-1635); assay: cell-based or functional assay
Sequence of Fibronectin cell binding fragment (110 Kd, Europa Bioproducts Ltd, Cat. No. UBF4215-18) (P02751 other isoform, or with tags, fused parts or gaps limits assumed): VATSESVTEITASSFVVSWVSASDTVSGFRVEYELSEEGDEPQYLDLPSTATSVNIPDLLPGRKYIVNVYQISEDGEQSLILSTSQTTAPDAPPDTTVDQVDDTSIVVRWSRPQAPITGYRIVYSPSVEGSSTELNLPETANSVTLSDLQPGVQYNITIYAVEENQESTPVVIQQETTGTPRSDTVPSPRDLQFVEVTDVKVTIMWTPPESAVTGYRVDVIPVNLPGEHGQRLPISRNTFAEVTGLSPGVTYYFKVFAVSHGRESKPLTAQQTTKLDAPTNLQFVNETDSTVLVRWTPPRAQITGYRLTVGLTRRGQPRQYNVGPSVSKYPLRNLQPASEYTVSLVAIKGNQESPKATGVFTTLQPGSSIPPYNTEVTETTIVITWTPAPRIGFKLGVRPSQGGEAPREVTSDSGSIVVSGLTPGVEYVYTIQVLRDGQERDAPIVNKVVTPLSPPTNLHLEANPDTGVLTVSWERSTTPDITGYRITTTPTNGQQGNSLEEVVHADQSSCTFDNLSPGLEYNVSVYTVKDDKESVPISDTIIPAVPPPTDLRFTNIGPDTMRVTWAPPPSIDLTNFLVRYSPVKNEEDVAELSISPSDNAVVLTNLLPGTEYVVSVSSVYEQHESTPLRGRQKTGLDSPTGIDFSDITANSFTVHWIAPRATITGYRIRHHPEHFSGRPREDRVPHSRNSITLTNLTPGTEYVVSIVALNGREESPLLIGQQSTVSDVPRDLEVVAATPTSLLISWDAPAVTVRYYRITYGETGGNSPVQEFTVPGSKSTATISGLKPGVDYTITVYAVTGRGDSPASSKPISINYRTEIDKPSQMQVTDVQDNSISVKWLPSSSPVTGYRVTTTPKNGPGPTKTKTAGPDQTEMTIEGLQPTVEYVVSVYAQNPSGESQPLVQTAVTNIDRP

VCAM (Panvera) = target: T1, VCAM (Panvera); assay: cell-based or functional assay
[2] = target: T2, MAdCAM-IgG1 Fc fusion protein (human); assay: MAdCAM-IgG1 Fc fusion / JY cell adhesion assay, mean IC50
T2 construct: Expressed in CHO-DHFR cells; also called MAdCAM-IgFc; soluble MAdCAM (in the sandwich ELISA)
T2 sequence (chain, as listed by the source limits assumed): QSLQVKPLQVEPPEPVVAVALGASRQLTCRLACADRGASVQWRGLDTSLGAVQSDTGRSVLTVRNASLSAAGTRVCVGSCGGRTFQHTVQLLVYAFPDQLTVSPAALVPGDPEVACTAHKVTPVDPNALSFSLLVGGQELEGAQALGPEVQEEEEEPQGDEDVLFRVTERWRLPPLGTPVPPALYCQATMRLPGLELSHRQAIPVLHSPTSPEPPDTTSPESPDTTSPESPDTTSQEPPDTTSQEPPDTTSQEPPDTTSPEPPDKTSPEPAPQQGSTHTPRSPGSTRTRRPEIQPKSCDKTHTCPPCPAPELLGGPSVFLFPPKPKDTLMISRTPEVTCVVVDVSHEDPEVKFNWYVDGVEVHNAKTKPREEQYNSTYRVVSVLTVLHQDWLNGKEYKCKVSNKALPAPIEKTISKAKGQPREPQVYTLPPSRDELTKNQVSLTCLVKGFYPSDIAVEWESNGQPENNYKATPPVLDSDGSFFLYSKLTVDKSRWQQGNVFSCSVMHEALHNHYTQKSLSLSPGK
Method: (§1) The cells were washed twice with RPMI 1640 media (Gibco) containing 2 mM L-glutamine (Gibco) by centrifugation (240 g), resuspending the final cell pellet at 2×10⁶ cells/mL in RPMI 1640 for Calcein AM loading. Calcein AM (Molecular Probes #C-3099) was added to the cells as a 1:200 dilution in DMSO (ca. final concentration 5 μM) and the cells protected from light during the course of the incubation (37° C. for 30 min). During this cell incubation step the antibodies to be tested, were diluted as follows: for single dose testing, the antibodies were made up to 3 μg/mL (1 μg/mL final) in 0.1 mg/mL BSA (Sigma#A3059) in PBS; for full IC₅₀ curves, the antibodies were diluted in 0.1 mg/mL BSA/PBS, with 3 μg/mL (1 μg/mL final) being the top concentration, then doubling dilutions (1:2 ratio) across the plate. The final well of the row was used for determining total binding, so 0.1 mg/ml BSA in PBS was used.
(§2) After blocking, the plate contents were flicked out and 50 μL of antibodies/controls were added to each well and the plate incubated at 37° C. for 20 min. During this time, Calcein-loaded JY cells were washed once with RPMI 1640 media containing 10% fetal bovine serum and once with 1 mg/mL BSA/PBS by centrifugation, resuspending the final cell pellet to 1×10⁶/mL in 1 mg/mL BSA/PBS. 100 μL of cells were added to each well of the U bottomed plate, the plate sealed, briefly centrifuged (1000 rpm for 2 min) and the plate then incubated at 37° C. for 45 min. At the end of this time, the plates were washed with a Skatron plate washer and fluorescence measured using a Wallac Victor² 1420 Multilabel Reader (excitation λ 485 nm, emission λ 535 nm count from top, 8 mm from bottom of plate, for 0.1 sec with normal emission aperture). For each antibody concentration, percent adhesion was expressed as a percentage of maximal fluorescence response in the absence of any antibody minus fluorescence associated with non-specific binding. The IC₅₀ value is defined as the anti-MAdCAM antibody concentration at which the adhesion response is decreased to 50% of the response in the absence of anti-MAdCAM antibody.

[3] = target: T2, MAdCAM-IgG1 Fc fusion protein; assay: adhesion of calcein-loaded α4β7+ JY cells to coated MAdCAM-IgG1 Fc, blocked by antibody
Method: as §1
as §2, with “The IC₅₀ value is defined as the anti-MAdCAM antibody concentration at which the adhesion response is decreased to 50% of the response in the absence of anti-MAdCAM antibody.” left out

inhibition of adhesion of α4β1+/α5β1+ Jurkat T-cells to coated Fibronectin cell binding fragment [1] [fold] | inhibition of adhesion of α4β1+/α5β1+ Jurkat T-cells to coated VCAM (VCAM (Panvera)) [fold] | IC50 [2] [µg/mL] | IC50 [3] [µg/mL] | Binder
 |  | 0.058 |  | modified anti-MAdCAM monoclonal antibody 6.22.2-mod (antibody, human IgG2, kappa, V domains shown, human IgG2 kappa, made in HEK 293T cells; signal peptide left out) VH: QVQLVESGGGVVQPGRSLRLSCAASGFTFSSDGMHWVRQAPGKGLEWVAIIWYDGSNKYYADSVKGRFTISRDNSKNTLYLQMNSLRAEDTAVYYCARDPGYYYGMDVWGQGTTVTVSS VL: EIVLTQSPDFQSVTPKEKVTITCRASQRIGSSLHWYQQKPDQSPKLLIKYASQSFSGVPSRFSGSGSGTDFTLTINSLEAEDAATYYCHQSGRLPLTFGGGTKVEIKR
> 100 | > 100 |  | < 0.1 | anti-MAdCAM monoclonal antibody 7.20.5 (antibody, human IgG2, kappa, V domains shown, fully human IgG2 kappa from hybridoma; signal peptide left out) VH: QVQLQESGPGLVKPSETLSLTCTVSGSSISSYHWNWIRQPAGKGLEWIGRIYTSGSTNYNPSLKSRVTMSLDTSKNQFSLKLSSVTAADTAVYYCAREGVRYYYASGSYYYGLDVWGQGTTVTVSS VL: not shown
 |  | 0.049 |  | modified anti-MAdCAM monoclonal antibody 6.34.2-mod (antibody, human IgG2, kappa, V domains shown, human IgG2 kappa, made in HEK 293T cells; signal peptide left out) VH: QVQLVESGGGVVQPGRSLRLSCAASGFTFSSYGMHWVRQAPGKGLEWVAVISNDGNNKYYADSVKGRFTISRDNSKNTLYLQMNSLRAEDTAVYYCARDSTAITYYYYGMDVWGQGTTVTVSS VL: DIQMTQSPSSLSASVGDRVTITCRASQSISSYLNWYQQKPGKAPKLLIYAASGLKRGVPSRFSGSGSGTDFTLTISSLQPEDFATYYCHQSYSLPFTFGPGTKVDIKR
 |  | 0.077 |  | modified anti-MAdCAM monoclonal antibody 6.77.1-mod (antibody, human IgG2, kappa, V domains shown, human IgG2 kappa, made in HEK 293T cells; signal peptide left out) VH: EVQLVESGGGLVKPGGSLRLSCAASGFTFSSYSMNWVRQAPGKGLEWVSSISSSSSYIYYADSVKGRFTISRDNAKNSLYLQMNSLRAEDTAVYYCARDGYSSGWSYYYYYGMDVWGQGTTVTVSS VL: DIVMTQTPLSLSVTPGQPASISCKSSQSLLLSDGKTYLNWYLQKPGQPPQLLIYEVSNRFSGVPDRFSGSGSGTDFTLKISRVEAEDVGVYSCMQSIQLMSSFGQGTKLEIKR
> 100 | > 100 |  |  | anti-MAdCAM monoclonal antibody 7.16.6 (antibody, human IgG2, kappa, V domains shown) VH: QVQLVQSGAEVKKPGASVKVSCKASGYTFTSYGINWVRQAPGQGLEWMGWISVYSGNTNYAQKVQGRVTMTADTSTSTAYMDLRSLRSDDTAVYYCAREGSSSSGDYYYGMDVWGQGTTVTVSS VL: DIVMTQTPLSLSVTPGQPASISCKSSQSLLHTDGTTYLYWYLQKPGQPPQLLIYEVSNRFSGVPDRFSGSGSGTDFTLKISRVEAEDVGIYYCMQNIQLPWTFGQGTKVEIKR
 |  | 0.037 |  | modified anti-MAdCAM monoclonal antibody 6.67.1-mod (antibody, human IgG2, kappa, V domains shown, human IgG2 kappa, made in HEK 293T cells; signal peptide left out) VH: QVQLQESGPGLVKPSETLSLTCTVSGDSISSNYWSWIRQPAGKGLEWIGRIYTSGGTNSNPSLRGRVTMSVDTSKNQFSLKLSSVTAADTAVYYCARDRITIIRGLIPSFFDYWGQGTLVTVSS VL: not shown

The remaining lines, values behind:

Binder | inhibition of adhesion of α4β1+/α5β1+ Jurkat T-cells to coated Fibronectin cell binding fragment [1] [fold] | inhibition of adhesion of α4β1+/α5β1+ Jurkat T-cells to coated VCAM (VCAM (Panvera)) [fold] | IC50 [2] [µg/mL] | IC50 [3] [µg/mL]
anti-MAdCAM monoclonal antibody 6.22.2 (antibody, human IgG4, kappa, V domains shown, fully human IgG4 kappa from hybridoma; signal peptide left out; kappa chain stained positive for glycosylation) VH: QVQLVESGGGVVQPGRSLRLSCAASGHTFSSDGMHWVRQAPGKGLEWVAIIWYDGSNKYYADSVKGRFTISRDNSKNTLYLQMNSLRAEDTAVYYCARDPGYYYGMDVWGQGTTVTVSS VL: EIVLTQSPDFQSVTPKEKVTITCRASQRIGSSLHWYQQKPDQSPKLLIKYASQSFSGVPSRFSGSGSGTNFTLTINGLEAEDAATYYCHQSGRLPLTFGGGTKVEIKR | > 100 | > 100 | 0.018 | 
anti-MAdCAM monoclonal antibody 6.34.2 (antibody, human IgG4, kappa, V domains shown, fully human IgG4 kappa from hybridoma; signal peptide left out; kappa chain stained positive for glycosylation) VH: QVQLVESGGGVVQPGRSLRLSCAASGFTFSSYGMHWVRQAPGKGLEWVAVISNDGNNKYYADSVKGRFTISRDNSKNTLYLQMNSLSAEDTAVYYCARDSTAITYYYYGMDVWGQGTTVTVSS VL: DIQMTQSPSSLSASVGDRVTITCRASQNISSYLNWFQQKPGKAPKLLIYAASGLKRGVPSRFSGSGSGTDFTLTIRTLQPDDFATYSCHQSYSLPFTFGPGTKVDIKR | > 100 | > 100 | 0.013 | 
modified anti-MAdCAM monoclonal antibody 7.26.4-mod (antibody, human IgG2, kappa, V domains shown, human IgG2 kappa, parental heavy chain with modified kappa chain, made in HEK 293T cells; signal peptide left out) VH: QVQLVQSGAEVKKPGASVKVSCEASGYTFTSYGIDWVRQAPGQGLEWMGWISVYSGNTNYAQKLQGRVTMSTDTSTSTAYMELRSLRSDDTAVYYCAREGSSSSGDYYYGMDVWGQGTTVTVSS VL: DIVMTQTPLSLSVTPGQPASISCKSSQSLLYSDGKTYLFWYLQKPGQPPQLLIYEVSNRFSGVPDRFSGSGSGTDFTLKISRVEAEDVGVYYCMQSIQLPWTFGQGTKVEIKR |  |  | 0.033 | 
anti-MAdCAM monoclonal antibody 6.77.1 (antibody, human IgG4, kappa, V domains shown, fully human IgG4 kappa from hybridoma; signal peptide left out; kappa chain stained positive for glycosylation) VH: EVQLVESGGGLVKPGGSLRLSCAASGFTFSSYSMNWVRQAPGKGLEWVSSISSSSSYIYYADSVKGRFTISRDNAKNSLYLQMNSLRAEDTAVYYCARDGYSSGWSYYYYYGMDVWGQGTTVTVSS VL: DIVMTQTPLSLSVTPGQPASISCNSSQSLLLSDGKTYLNWYLQKPGQPPQLLIYEVSNRFSGVPDRFSGSGSGTDFTLKISRVEAEDVGVYSCMQSIQLMCSFGQGTKLEIKR | > 100 | > 100 |  | 
anti-MAdCAM monoclonal antibody 1.7.2 (antibody, human IgG2, kappa, V domains shown) VH: EVQLVESGGGLVKPGGSLRLSCVASGFTFTNAWMIWVRQAPGKGLEWVGRIKRKTDGGTTDYAAPVKGRFTISRDDSKNTLYLQMNSLKTEDTAVYYCTTGGVAEDYWGQGTLVTVSS VL: not shown | > 100 | > 100 |  | 
anti-MAdCAM monoclonal antibody 1.8.2 (antibody, human IgG2, kappa, V domains shown) VH: EVQLVESGGGLVKPGGSLRLSCVVSGFTFTNAWMIWVRQAPGKGLEWVGRIKRKTDGGTTDYAAPVKGRFTISRDDSKNTLYLQMNSLKTEDTAVYYCTTGGVAEDYWGQGTLVTVSS VL: not shown | > 100 | > 100 |  | 
anti-MAdCAM monoclonal antibody 6.67.1 (antibody, human IgG4, kappa, V domains shown, fully human IgG4 kappa from hybridoma; signal peptide left out; kappa chain stained positive for glycosylation) VH: QVQLQESGPGLVKPSETLSLTCTVSGDSISSNYWSWIRQPAGKGLEWIGRIYTSGGTNSNPSLRGRVTILADTSKNQFSLKLSSVTAADTAVYYCARDRITIIRGLIPSFFDYWGQGTLVTVSS VL: not shown | > 100 | > 100 | 0.013 | 
anti-MAdCAM monoclonal antibody 6.73.2 (antibody, human IgG4, kappa, V domains shown) VH: EVQLLESGGDLVQPGGSLRLSCAASGFTFRSYAMNWVRQAPGKGLEWVSVISGRGGTTYYADSVKGRFTISRDNSKNTLYLQMNSLRAEDAAVYYCAKIAVAGEGLYYYYGMDVWGQGTTVTVSS VL: DIQMTQSPSSLSASVGDRVTFTCRASQNITNYLNWYQQKPGKAPKLLIYAASSLPRGVPSRFRGSGSGTDFTLTISSLQPEDFATYYCQQSYSNPPECGFGQGTTLDIKR | > 100 | > 100 |  | 
anti-MAdCAM monoclonal antibody 6.14.2 (antibody, human IgG4, kappa, V domains shown) VH: EVQLLESGGGLVQPGGSLRLSCAASGLTFNNSAMTWVRQAPGKGLEWVSTTSGSGGTTYYADSVKGRFTISRDSPKNTLYLQMNSLRAEDTAVYYCAARGYSYGTTPYEYWGQGTLVTVSS VL: DIQMTQSPSSLSASVGDRVTITCRASRSISSYLNWYQQKPGKAPKVLIFFVSSLQSGVPSRFSGSGSGTDFTLTISSLQPEDFATYYCQQNYIPPITFGQGTRLEIRR | > 100 | > 100 |  | 
